Measured values: the nanobody polyreactivity screen of Harvey et al. (2022)

Experiment: yeast display, Sf9 membrane polyspecificity reagent, FACS + sequencing; frameworks hold sequencing errors
Summary of the method: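 Polyreactivity labels are assigned by the sorting gate from which each nanobody was recovered. The gates were low and high (top ~1%), set on anti-HA fluorescence for expression and streptavidin fluorescence for reagent binding. Before sorting, galactose-induced (36–48 hours) yeast display cells were stained for 1 hour at 4 °C with 10% biotinylated, detergent-solubilized Sf9 membrane reagent.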
For “QVQLVESGGGLVQAGGSLRLSCAASGFISFAYAMGWYRQAPGKERELVAGISRSGDSTYYADSVKGRFTISRDNAKNTVYLQMNSLKPEDTAVYYCAVVTYRSKAHSSRNGKYYYWGQGTQVTVSS”, the “polyreactivity (PSR sort gate)” value was “low polyreactivity”.
In the case of “QVQLVESGGGLVQAGGSLRLSCAASGFISFGNAMGWYIQAPGKERELVAGISRSGGSTYYADSVKGRFTISRDNAKNTVYLQMYSLKPEDTAVYYCATRVAIYPYRFDYWGQGTQVTVSS”, the “polyreactivity (PSR sort gate)” value is reported as “high polyreactivity”.
For “QVQLVESGGGLVQAGGSLRLSCAASGFISGYYTMRWYRQAPGKERELVAVINSGGSTYYADSVKGRFTISRDNAKNTVYFQMNSLKPEDTAVYYCAKLGGKYSRYYYWGHGTQVTVSS”, the “polyreactivity (PSR sort gate)” value was “low polyreactivity”.
With “QVQLVESGGGLVQAGGSLRLSCAASGFISPKYGMGWYRQAPGKERELVAAITPSDGSTSYADSVKGRFTISRDNAKNTVYLQMNSLKPEDTAVYYCNKSRYKSYSYDYWGQGTQVTVSS” the “polyreactivity (PSR sort gate)” value was “high polyreactivity”.
In the case of “QVQLVESGGGLVQAGGSLRLSCAASGFISPSYAMGWYRPAPGKERELVAAIRSSDGSTYYADSVKGRFTISRDNAKNTVYLQMNSLKPEDTAVYYCAAGGSYYRDDYWGQGTQVTVSS”, the “polyreactivity (PSR sort gate)” value is reported as “low polyreactivity”.
For “QVQLVESGGGLVQAGGSLRLSCAASGFISPSYDMGWYRQAPGKEWELVAAIRSSDGSTYYADSVKGRFTISRDNAKNTVYLQMNSLKPEDTAVYYCNKGVVLTLYVGMDYWGQGTQVTVSS”, the “polyreactivity (PSR sort gate)” value was “low polyreactivity”.
In the case of “QVQLVESGGGLVQAGGSLRLSCAASGFISRKNAMGWYRQAPGKERELVAAISKSGGRTYYADSVKGRFTISRDNAKNTVYLQMNSLKPEDTAVYYCNRVPRDSWPYAWYDYWGQGTQVTVSS”, the “polyreactivity (PSR sort gate)” value is reported as “high polyreactivity”.
For “QVQLVESGGGLVQAGGSLRLSCAASGFISTPYAIGWYRQAPGKERELVAAIDISGGRTYYADSVKGRFTISRDNAKNTVYLQMNSLKPEDTAVYDCAAQLVSSYYAWYRTYYYWGQGTQVTVSS”, the “polyreactivity (PSR sort gate)” value was “high polyreactivity”.
With “QVQLVESGGGLVQAGGSLRLSCAASGFISYTYMGWYRQAPGKERELVAGITGSGGSTYYADSVKGRFTISRDNAKNTVYLQMNILKPEDTAVYYCAAPRYLSYVRRYDYWGQGTQVTVSS” the “polyreactivity (PSR sort gate)” value was “high polyreactivity”.
With “QVQLVESGGGLVQAGGSLRLSCAASGFISYYYAMGWYRQAPGKDWELVAVITSGGSTDYADSVKGRFTISRDHAKNTVYLQMNSLKPEDTAVYYCARDDPASHKRYWHDYWGQGTQVTVSS” the “polyreactivity (PSR sort gate)” value was “low polyreactivity”.
In the case of “QVQLVESGGGLVQAGGSLRLSCAASGFISYYYAMGWYRQAPGKEREFVAAITSSGGSTRYADSVKGRFTISRDNAKNTVYLQMNSLKPEDTAVYYCAAGNPYFWPYDYWGQGTQVTVSS”, the “polyreactivity (PSR sort gate)” value is reported as “low polyreactivity”.
For “QVQLVESGGGLVQAGGSLRLSCAASGFIVDWYTRGWYRQAPGKERELVARISSDGSTTYADSVKGRFTISRDNAKNTVSVQMTSLKPEDTAVYYCAADVTYPGLKYIFDDWGQGTQVTVTS”, the “polyreactivity (PSR sort gate)” value was “low polyreactivity”.
For “QVQLVESGGGLVQAGGSLRLSCAASGFIVRNYAMGWYSQAPGKERELVASISRGTSTNYADSVKGRFTISRDNAKNTVYLQMNSLKPEDTAVYYCNKRFYYHPFDYWGQGTQVTVSS”, the “polyreactivity (PSR sort gate)” value was “high polyreactivity”.
For “QVQLVESGGGLVQAGGSLRLSCAASGFIVWVYAMGWYRQAPGKERELVAAITSGGGSTYYADSVKGRFTISRDNAKNTVYLQMNSLKPEHTAVYYCNAVSWEGYDFDYWGQGTQVTVSS”, the “polyreactivity (PSR sort gate)” value was “high polyreactivity”.
For “QVQLVESGGGLVQAGGSLRLSCAASGFIYDYAMGWYRQAPGKEREFVARINWSGGSTYYADSVKGRFTISRDNAKNTVYLQMNSLKPEDTAVFYCATSGWAWRTSNPYEYWGQGTQVTVSS”, the “polyreactivity (PSR sort gate)” value was “low polyreactivity”.
For “QVQLVESGGGLVQAGGSLRLSCAASGFIYWYAMGWSRQAPGKERELVAAITWSGGSTYADSVKGRFTISRDNAKNTVYLQMNSLKPEDTAVYYCAADKYSQWSSHTRVRYDYWGQGTQVTVSS”, the “polyreactivity (PSR sort gate)” value was “low polyreactivity”.
For “QVQLVESGGGLVQAGGSLRLSCAASGFIYYAMGWYRQAPGKERELVAAISRGGTTYYADSVKGRFTISRDNAKNTVYLQMNSLKPEVTAVSYCNAVGYRAVGYKTGYARYGYWGQGTQVTVSS”, the “polyreactivity (PSR sort gate)” value was “high polyreactivity”.
For “QVQLVESGGGLVQAGGSLRLSCAASGFLFYYNAMGWYRQAPGKERELVATSTSGGSTNYADSVKGRFTISRDNAKNTVYLQMNSLKPEDTAVYYCAAGHSWVYGYDYWGQGTQVTVSS”, the “polyreactivity (PSR sort gate)” value was “low polyreactivity”.
With “QVQLVESGGGLVQAGGSLRLSCAASGFMFSRYGMGWYRQAPGKERELVAAISGSCGSTYYADSVKGRFTISRDNAKNTVYLQMKSLKPEDTAFYLCATAYSWSNSDWFAYSYDYWGHGTQVTVSS” the “polyreactivity (PSR sort gate)” value was “low polyreactivity”.
For “QVQLVESGGGLVQAGGSLRLSCAASGFNFDGNAMGWYRQAPGKERELVAAISSSSGRTRYADSVTGRFSISRDNAKNTVYLQMNSLKPEDTAVYYCAARRQSTRPGFYYWGQGTQVTVSS”, the “polyreactivity (PSR sort gate)” value was “high polyreactivity”.
For “QVQLVESGGGLVQAGGSLRLSCAASGFNFEAYTMGWYRQAPGKERELVASIDWDGGSTYYADSVKGRFTISRDNAKNTVYLQMNSLKPEDTAVYYCAADSRQYDELGDYDYWGQGTQVTVSS”, the “polyreactivity (PSR sort gate)” value was “low polyreactivity”.
For “QVQLVESGGGLVQAGGSLRLSCAASGFNFEVNAMGWYRQAPGKERELVAAITTDGSTNYADSVNGRFSSSRDNAKNTVYIQMTSLKPEDTAVYYCAARVQHYLGTDDYWGQGTQVTVSS”, the “polyreactivity (PSR sort gate)” value was “low polyreactivity”.
With “QVQLVESGGGLVQAGGSLRLSCAASGFNFGYYAMGWYRQAPGKERELVAAITSRGGSTYYADSVKGRFTISRDNAKNTDYLQMNSLKPEDTAVYYLAAYSQYLKRDYWGQGTQVTVSS” the “polyreactivity (PSR sort gate)” value was “high polyreactivity”.
For “QVQLVESGGGLVQAGGSLRLSCAASGFNFIDYAMGWYRQAPGKERELVAAITSSGGRTYYADSVKGRFTISRDNAKITVYLQMTSLKPEDTAVYYCAARLPGYVRIYDYWGQGTQVTVSS”, the “polyreactivity (PSR sort gate)” value was “high polyreactivity”.
With “QVQLVESGGGLVQAGGSLRLSCAASGFNFIKYAMGWSRQSPGKESELVAAISFRGGRTYYADSVKGRITISRDNAKNTVYLQMNSLKPEDTAVYYCAAETRDYSEGYYWGQGTQVTVSS” the “polyreactivity (PSR sort gate)” value was “high polyreactivity”.
With “QVQLVESGGGLVQAGGSLRLSCAASGFNFLTYAMGWYRQATGKESELVAAISSSGGRTTYADSVKGRFTISRDNAKNTVYLQMNSLKPEDTAVYYCAVEDYTIVLDYESWGQGTQVTVSS” the “polyreactivity (PSR sort gate)” value was “high polyreactivity”.
In the case of “QVQLVESGGGLVQAGGSLRLSCAASGFNFPRYTMGWSRKAPGKEREFVAGITLRGGSTYYADSVKGRFTISRANAKNTVYLQMNSLKPDETAVYYCARVISRGRSFGIGYDYWGQATQVTVSS”, the “polyreactivity (PSR sort gate)” value is reported as “low polyreactivity”.
In the case of “QVQLVESGGGLVQAGGSLRLSCAASGFNFPYNAMGRYRQAPGKERELVAAITSGSNTYYADSVKGRFTISRDNAKNTVYLQMNSLKPEDTAVYYCAARGHGAYGYWGQGTQVTVSS”, the “polyreactivity (PSR sort gate)” value is reported as “low polyreactivity”.
With “QVQLVESGGGLVQAGGSLRLSCAASGFNFRLYAMGWYRQAPGKERELVATITQRGGRTYYADSVKGRFTISLDNAHNTVYLQMNSLKPEDTAVYYCAATWTVTTGTKFDYWGQGTQVTVAS” the “polyreactivity (PSR sort gate)” value was “high polyreactivity”.
In the case of “QVQLVESGGGLVQAGGSLRLSCAASGFNFSSYAMGWSRQAPGKERELVAAISGSGGTTYYADSVKGRFTISRDNAKNTVYLQMNSQKPEDTAVYYCATRLGLVITKYGYDYWGQGTQVTVSS”, the “polyreactivity (PSR sort gate)” value is reported as “high polyreactivity”.
In the case of “QVQLVESGGGLVQAGGSLRLSCAASGFNFYSYAMGWYKQAPGKERELVAVTYADSVKGRFTISRDNAQNTVYLQMNSLKPEDTAVYYCAALEYLDGPLSDYWGQGTQVTVSS”, the “polyreactivity (PSR sort gate)” value is reported as “low polyreactivity”.
In the case of “QVQLVESGGGLVQAGGSLRLSCAASGFNIGDYAMGWYRQAPGKERELVAAITISGGGTYYADSVKGRFTISRDNAKNTVYLQMNSLKPEDTAVYYCAAGYYDLNLDTDFGFDYWGQGTQVTVSS”, the “polyreactivity (PSR sort gate)” value is reported as “low polyreactivity”.
With “QVQLVESGGGLVQAGGSLRLSCAASGFNSDWYAMGWSRQAPGKERELVATIDWIGGSTYADSVKGRFTISRDNAKNTVFLQMNSLKPEDTAVYYCAADSYFIAWYGAHYAYDYWGQGTQVTVSS” the “polyreactivity (PSR sort gate)” value was “low polyreactivity”.
With “QVQLVESGGGLVQAGGSLRLSCAASGFSFHRYAMGWYRQAPGKERELVAGITRRSGSTFYADSVKGRFTISRDNAKNTVYLQMNRLKPEDSAVYYCAATVPGLHWIYDYWGQGTQVTVSS” the “polyreactivity (PSR sort gate)” value was “high polyreactivity”.
With “QVQLVESGGGLVQAGGSLRLSCAASGFTCAWYTMGWYREAPGKERELVAAISLNGGSTYYADSVKGRFTISRDNAKNTVYLQMNRLKPEDTAVYYCAKGYRWPYYPYDYWGQGTQVTVSS” the “polyreactivity (PSR sort gate)” value was “low polyreactivity”.
With “QVQLVESGGGLVQAGGSLRLSCAASGFTCKKYAMGWSRQAPGKERDLVASITWYGGSTSYADSVKGRFTISRDNANNTVYLQMNSLKPEDTAVYYCAAATFVYRLRYNRFDYWGQGTQVTVSS” the “polyreactivity (PSR sort gate)” value was “high polyreactivity”.
In the case of “QVQLVESGGGLVQAGGSLRLSCAASGFTCSQNAMGWYRQAPGKERELVAAITGHGGSTYYADSVKGRFTISRDNAKNTVYLQMNSLKPEDTAVYYCAADVYAVHAPQSDYWTKYDYWGQGTQVTVSS”, the “polyreactivity (PSR sort gate)” value is reported as “low polyreactivity”.
With “QVQLVESGGGLVQAGGSLRLSCAASGFTFAAYAMGWYRQAPVKERELVAAITNGGSTKYADSVKGRFTISRDNAKNTVYVQMNSLKPEDTSVYYCNADGFDLNVTNVSALEYDSWGQGTQVTVSS” the “polyreactivity (PSR sort gate)” value was “low polyreactivity”.
With “QVQLVESGGGLVQAGGSLRLSCAASGFTFAFYTMGWSRPAPGKESELVAGITRSGTNTYYADSLTGRFTISRDNAKNTVYLLLNSLTPEDTAVYYCAAAIRPGMDYWGQGTQVTVSS” the “polyreactivity (PSR sort gate)” value was “high polyreactivity”.
In the case of “QVQLVESGGGLVQAGGSLRLSCAASGFTFAGNAMGWYRPAPGKERELVAAISRRGGSTYYADSVKGRFTISRDNAKNTVYLQMNSLKPEDTAVYYCAAVYPYDYDYWGQGTQVTVSS”, the “polyreactivity (PSR sort gate)” value is reported as “high polyreactivity”.
With “QVQLVESGGGLVQAGGSLRLSCAASGFTFAGYAMGWSRQAPGKERELVAGIRSSGARTYYADSVKGRFTISRDNAKNTVYLQMNSLKPEDTAVDYCAKTDGFYRGYGYWGQGTQVTVSS” the “polyreactivity (PSR sort gate)” value was “low polyreactivity”.
With “QVQLVESGGGLVQAGGSLRLSCAASGFTFAKYAMGWYRQAPGKERELVAAISSSGGRTYYADSVKGRFTISRDNAKNTVYLQMNSLKPEDTAVYYCAAAIRYRNYVYLYDYWGQGTQVTVSS” the “polyreactivity (PSR sort gate)” value was “high polyreactivity”.
In the case of “QVQLVESGGGLVQAGGSLRLSCAASGFTFALYAMGWYRQAPGKERELVASISWSGGSTYYADSVKGRFTISRDNAKNTVYLQMNSLKPEDTAVYYCAACGRYYGGAYTRYYYWGQGTQVTVSS”, the “polyreactivity (PSR sort gate)” value is reported as “high polyreactivity”.
